Measurements taken from the Human Domainome abundance scans (Beltran et al. 2025).
± gives the uncertainty stated by the source.

B1: Ankyrin-2, residues 3571 to 3650; numbered along this chain, Q01484 (parent)
chain: ERLAYIADHLGFSWTELARELDFTEEQIHQIRIENPNSLQDQSHALLKYWLERDGKHATDTNLVECLTKINRMDIVHLME

Variants of: B1
Experiment: abundance fitness (aPCA) (normalised: wild type 0, dead -1); higher = more abundant; growth selection in yeast, the domain comes from the species named
Conditions: Homo sapiens

| Variant | abundance fitness |
| --- | --- |
| ERLAYIADHLGFSWTELARELDFTEEQIMQIRIENPNSLQDQSHALLKYWLERDGKHATDTNLVECLTKINRMDIVHLME | -0.133 ± 0.16 |
| ERLAYIADHLGFSWTELARELDFTEEQIHQIRIENPNSLQDQSHALLKYWLERDGKHATDTNLVECLTKINLMDIVHLME | -0.187 ± 0.15 |
| ERLAYIADHLGFSWTELARELDFTEEQIHQIRIENPNSLQDQSHALLKYWLERDNKHATDTNLVECLTKINRMDIVHLME | 0.028 ± 0.081 |
| ERLAYIADHLGFSWTELARELDFTEEQIHQIRIENPNSLQDQSHALLKYWLERDAKHATDTNLVECLTKINRMDIVHLME | -0.013 ± 0.034 |
| ERLAYIADHLGFSWTELARELDFTEEQIHQIRIENPNSLQDQSHALLKYWLERDMKHATDTNLVECLTKINRMDIVHLME | -0.061 ± 0.051 |
| ERLAYIADHLGFSWTELARELDFTEEQIHQIRIENPNSLQDQSHALLKYWLERDGKHATDTDLVECLTKINRMDIVHLME | 0.051 ± 0.081 |
| ERLAYIADHLGFSWTELARELDFTEEQIHQIRIENPNSLQDQSHALLKYWLERDGKHATDTELVECLTKINRMDIVHLME | -0.089 ± 0.13 |
| ERLAYIADHAGFSWTELARELDFTEEQIHQIRIENPNSLQDQSHALLKYWLERDGKHATDTNLVECLTKINRMDIVHLME | -0.64 ± 0.099 |
| ERLAYIADHLGFSWTELARELDFTEEQIHQIRIENPNSLQDQSHALLKYWLERDGKHETDTNLVECLTKINRMDIVHLME | -0.071 ± 0.088 |
| ERLAYIADHLGFSWTELARELDFTEEQIHQIRIENPNSLQDQSHALLKYWLERDGKHRTDTNLVECLTKINRMDIVHLME | -0.067 ± 0.044 |
| ERLAYIADHLGFSWTELARELDFTEEQIHQIRIENPNSLQDQSHALLKYWLERDGKHATDTNLVECHTKINRMDIVHLME | -0.838 ± 0.5 |
| ERLAYIADHLGFSWTELARELDFYEEQIHQIRIENPNSLQDQSHALLKYWLERDGKHATDTNLVECLTKINRMDIVHLME | 0.053 ± 0.13 |
| ERLAYIADHLGFSRTELARELDFTEEQIHQIRIENPNSLQDQSHALLKYWLERDGKHATDTNLVECLTKINRMDIVHLME | -0.994 ± 0.16 |
| ERLAYIADHLGFSWSELARELDFTEEQIHQIRIENPNSLQDQSHALLKYWLERDGKHATDTNLVECLTKINRMDIVHLME | 0.018 ± 0.053 |
| ERLAYIADHLGFSWGELARELDFTEEQIHQIRIENPNSLQDQSHALLKYWLERDGKHATDTNLVECLTKINRMDIVHLME | -0.042 ± 0.06 |
| ERLAYIADHLGFSWTELARELDFTEEQIHQIRIENPNSLQDQSHALLKYWLERDGKHATDTNAVECLTKINRMDIVHLME | -0.11 ± 0.049 |
| ESLAYIADHLGFSWTELARELDFTEEQIHQIRIENPNSLQDQSHALLKYWLERDGKHATDTNLVECLTKINRMDIVHLME | 0.026 ± 0.17 |

| Variant | abundance fitness |
| --- | --- |
| ERLAYIADHLGFSWTELARELDFTEEQIHQIRIENPNSLQDQSHALLKYWLERDGKHATDTNLVQCLTKINRMDIVHLME | -0.017 ± 0.067 |
| ERLAYIADHLGFSWTELARELDFTEEQIHQIRIENPNSLQDQSHALLKYFLERDGKHATDTNLVECLTKINRMDIVHLME | -0.086 ± 0.12 |
| ERLAYIADHLGFSWTELARELDFTEEQIHQIRIENPNSLQDQSHALLKYWLDRDGKHATDTNLVECLTKINRMDIVHLME | -0.178 ± 0.13 |
| ERLAYIADHLGFSWTELARELDFTEEQIHQIRIENPNSLQDQSHALLKYWLCRDGKHATDTNLVECLTKINRMDIVHLME | -0.132 ± 0.052 |
| ERLAYIADHLGFSWTELARELDFTEEQIHQIRIENPNSLQDQSHALLKYWLHRDGKHATDTNLVECLTKINRMDIVHLME | -0.09 ± 0.12 |
| ERLAYIADHLGFSWTELARELDFTEMQIHQIRIENPNSLQDQSHALLKYWLERDGKHATDTNLVECLTKINRMDIVHLME | -0.041 ± 0.098 |
| ERLAYIADHLGFSWTELARELDFTEEQIHQIRIENSNSLQDQSHALLKYWLERDGKHATDTNLVECLTKINRMDIVHLME | -0.117 ± 0.063 |
| ERLAYIADHLGFSWTELARELDFTEEQIHQIRIENYNSLQDQSHALLKYWLERDGKHATDTNLVECLTKINRMDIVHLME | -0.221 ± 0.13 |
| ERLAYIADHLGFSWTWLARELDFTEEQIHQIRIENPNSLQDQSHALLKYWLERDGKHATDTNLVECLTKINRMDIVHLME | -0.297 ± 0.12 |
| ERLAYIADHLGFSWTELARELDFTEEQLHQIRIENPNSLQDQSHALLKYWLERDGKHATDTNLVECLTKINRMDIVHLME | -0.05 ± 0.052 |
| ERLAYIADHLGFSWTEEARELDFTEEQIHQIRIENPNSLQDQSHALLKYWLERDGKHATDTNLVECLTKINRMDIVHLME | -1.05 ± 0.43 |
| ERLAYIADHLGFSWTELARELDFTEEQIHQIRIENPNSLQDQSHALLKYWLERDGKHATDTNLVECLTSINRMDIVHLME | -0.049 ± 0.059 |
| ERLAYIADHLGFSWTELARELDFTEEQIHQIRIENPNSLQDQSHALLKYWLERDGKWATDTNLVECLTKINRMDIVHLME | -0.065 ± 0.09 |
| ERLAYIADHLGFSWTELARELDFTSEQIHQIRIENPNSLQDQSHALLKYWLERDGKHATDTNLVECLTKINRMDIVHLME | -0.038 ± 0.055 |
| ERLAYIADHLGFSWTELARELDFTIEQIHQIRIENPNSLQDQSHALLKYWLERDGKHATDTNLVECLTKINRMDIVHLME | 0.009 ± 0.22 |
| ERLAYIADHLGFSWTELARELDFTEEQIHQIRIENPNSLQDQSHRLLKYWLERDGKHATDTNLVECLTKINRMDIVHLME | -0.002 ± 0.27 |
| ERLAYIADHLGFSWTELARELDFTEEQIHQIRIENPNSLQDQSHCLLKYWLERDGKHATDTNLVECLTKINRMDIVHLME | -0.189 ± 0.25 |
